According to patent US6492139 (Genentech, dated 2002):

Tests used:
[1] = biological target: T1, Flag tagged rSmo (rat Smoothened with C-terminal Flag epitope tag) (rat, UniProt P97698 33-793); assay: staining of transfected cells exposed to tagged ligand
T1 construct: Expressed transiently in COS-7 or 293 cells from pRK5

[2] = biological target: T2, dSmo (Drosophila Smoothened, epitope tagged) (Drosophila, UniProt P91682 32-1036); assay: as above
T2 construct: also called dro.smo
T2 sequence: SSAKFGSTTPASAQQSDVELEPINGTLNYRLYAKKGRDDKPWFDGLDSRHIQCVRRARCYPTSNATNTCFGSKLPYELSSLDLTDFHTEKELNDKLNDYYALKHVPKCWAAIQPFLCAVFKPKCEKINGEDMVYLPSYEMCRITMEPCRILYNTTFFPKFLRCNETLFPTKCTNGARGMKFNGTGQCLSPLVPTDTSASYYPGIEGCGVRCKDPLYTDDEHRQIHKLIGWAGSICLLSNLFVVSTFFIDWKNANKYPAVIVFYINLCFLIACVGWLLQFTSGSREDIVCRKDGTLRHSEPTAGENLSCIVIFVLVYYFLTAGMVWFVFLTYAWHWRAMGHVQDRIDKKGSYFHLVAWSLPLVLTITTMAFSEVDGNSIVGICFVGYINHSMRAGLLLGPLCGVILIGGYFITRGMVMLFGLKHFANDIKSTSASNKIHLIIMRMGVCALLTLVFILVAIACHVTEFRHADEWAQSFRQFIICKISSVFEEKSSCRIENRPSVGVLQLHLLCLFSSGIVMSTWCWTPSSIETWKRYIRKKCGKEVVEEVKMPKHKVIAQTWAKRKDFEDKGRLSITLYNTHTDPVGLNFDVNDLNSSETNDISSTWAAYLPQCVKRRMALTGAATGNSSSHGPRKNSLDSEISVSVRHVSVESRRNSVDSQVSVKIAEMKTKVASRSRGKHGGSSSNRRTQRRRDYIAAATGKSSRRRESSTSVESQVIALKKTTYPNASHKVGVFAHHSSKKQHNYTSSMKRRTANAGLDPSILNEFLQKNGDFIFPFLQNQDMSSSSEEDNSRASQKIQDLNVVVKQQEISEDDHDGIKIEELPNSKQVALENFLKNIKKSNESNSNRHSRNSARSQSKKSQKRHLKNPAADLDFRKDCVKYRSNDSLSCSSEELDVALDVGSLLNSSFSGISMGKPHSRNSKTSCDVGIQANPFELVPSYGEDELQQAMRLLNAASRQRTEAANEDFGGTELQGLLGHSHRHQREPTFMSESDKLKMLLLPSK

T1 sequence (P97698 33-793): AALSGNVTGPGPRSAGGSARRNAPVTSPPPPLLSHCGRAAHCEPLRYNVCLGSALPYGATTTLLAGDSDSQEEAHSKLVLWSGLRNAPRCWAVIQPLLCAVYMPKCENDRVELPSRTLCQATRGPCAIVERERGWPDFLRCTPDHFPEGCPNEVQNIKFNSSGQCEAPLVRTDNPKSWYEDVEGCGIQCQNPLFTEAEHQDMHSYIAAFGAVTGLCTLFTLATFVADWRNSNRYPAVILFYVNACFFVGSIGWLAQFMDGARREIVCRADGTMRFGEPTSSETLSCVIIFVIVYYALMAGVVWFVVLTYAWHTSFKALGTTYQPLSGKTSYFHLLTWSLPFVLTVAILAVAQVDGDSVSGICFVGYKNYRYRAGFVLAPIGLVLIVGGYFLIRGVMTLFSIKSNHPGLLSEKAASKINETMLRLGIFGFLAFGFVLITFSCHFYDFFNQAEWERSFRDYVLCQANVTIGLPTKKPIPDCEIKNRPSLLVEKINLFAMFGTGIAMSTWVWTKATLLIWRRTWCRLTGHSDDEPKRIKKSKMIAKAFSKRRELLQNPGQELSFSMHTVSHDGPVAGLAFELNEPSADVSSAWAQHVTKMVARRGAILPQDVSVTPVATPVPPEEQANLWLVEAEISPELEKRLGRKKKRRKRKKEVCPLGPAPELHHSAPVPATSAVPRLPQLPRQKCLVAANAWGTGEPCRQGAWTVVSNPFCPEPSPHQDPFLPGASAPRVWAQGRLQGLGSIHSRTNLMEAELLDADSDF

binding result [1]: no binding
binding result [2]: no binding
B1: epitope tagged Desert HH (ligand, not shown: small tags and cut ends)
chain: not shown
